The record followed here is article PMC8327139, “Nodal modulator (NOMO) is required to sustain endoplasmic reticulum morphology” (The Journal of Biological Chemistry, 2021).

The series deals with the molecule itself. Briefly: SEC-MALS; NOMO1-FLAG on a Superose 6 column, RT, 50 mM MES pH 6.0, 150 mM KCl, 5 mM MgCl2, 5 mM CaCl2, 2% glycerol, 0.05% DDM; protein conjugate analysis to correct for detergent.

B1: NOMO1-FLAG (nodal modulator 1, full length, C-terminal FLAG tag) (natural protein, human, UniProt Q15155 32-1222, looked up)
chain: SEDIVVGCGGFVKSDVEINYSLIEIKLYTKHGTLKYQTDCAPNNGYFMIPLYDKGDFILKIEPPLGWSFEPTTVELHVDGVSDICTKGGDINFVFTGFSVNGKVLSKGQPLGPAGVQVSLRNTGTEAKIQSTVTQPGGKFAFFKVLPGDYEILATHPTWALKEASTTVRVTNSNANAASPLIVAGYNVSGSVRSDGEPMKGVKFLLFSSLVTKEDVLGCNVSPVPGFQPQDESLVYLCYTVSREDGSFSFYSLPSGGYTVIPFYRGERITFDVAPSRLDFTVEHDSLKIEPVFHVMGFSVTGRVLNGPEGDGVPEAVVTLNNQIKVKTKADGSFRLENITTGTYTIHAQKEHLYFETVTIKIAPNTPQLADIIATGFSVCGQISIIRFPDTVKQMNKYKVVLSSQDKDKSLVTVETDAHGSFCFKAKPGTYKVQVMVPEAETRAGLTLKPQTFPLTVTNRPMMDVAFVQFLASVSGKVSCLDTCGDLLVTLQSLSRQGEKRSLQLSGKVNAMTFTFDNVLPGKYKISIMHEDWCWKNKSLEVEVLEDDMSAVEFRQTGYMLRCSLSHAITLEFYQDGNGRENVGIYNLSKGVNRFCLSKPGVYKVTPRSCHRFEQAFYTYDTSSPSILTLTAIRHHVLGTITTDKMMDVTVTIKSSIDSEPALVLGPLKSVQELRREQQLAEIEARRQEREKNGNEEGEERMTKPPVQEMVDELQGPFSYDFSYWARSGEKITVTPSSKELLFYPPSMEAVVSGESCPGKLIEIHGKAGLFLEGQIHPELEGVEIVISEKGASSPLITVFTDDKGAYSVGPLHSDLEYTVTSQKEGYVLTAVEGTIGDFKAYALAGVSFEIKAEDDQPLPGVLLSLSGGLFRSNLLTQDNGILTFSNLSPGQYYFKPMMKEFRFEPSSQMIEVQEGQNLKITITGYRTAYSCYGTVSSLNGEPEQGVAMEAVGQNDCSIYGEDTVTDEEGKFRLRGLLPGCVYHVQLKAEGNDHIERALPHHRVIEVGNNDIDDVNIIVFRQINQFDLSGNVITSSEYLPTLWVKLYKSENLDNPIQTVSLGQSLFFHFPPLLRDGENYVVLLDSTLPRSQYDYILPQVSFTAVGYHKHITLIFNPTRKLPEQDIAQGSYIALPLTLLVLLAGYNHDKLIPLLLQLTSRLQGVRALGQAASDNSGPEDAKRQAKKQKTRRT
notes: Nodal modulator 1 (NOMO1), human, type I transmembrane glycoprotein: luminal domain (1124 residues), TM domain, 40-residue cytosolic tail; cloned from a Dharmacon plasmid into pcDNA3.1+; 135 kDa with the tag; Membrane protein kept in dodecyl maltoside (0.05% DDM); also called full-length NOMO1-FLAG; full-length NOMO; source: Expi293F, transfected, purified in DDM (anti-FLAG M2 beads, FLAG peptide …)
For the protein B1, the “stoichiometry N” value was 2.
